Ends that are not written are not given here. Peptide text beside a SMILES is read from it. * marks the point of attachment. FITC = O=C1OC2(c3ccc(O)cc3Oc3cc(O)ccc32)c2ccc(NC(=S)*)cc21
Legend:
Anx A2 [1] = target: T1, Anx A2 (Rattus norvegicus, UniProt Q07936); conditions: Anx A2 prepared from cancer cells/tumor membranes; cited from earlier work
T1 construct: the 36 kDa Anx A2 protein, prepared from cancer cells/tumor membranes; endogenous in cells

colon cancer xenograft = experiment: Homing of FITC-PG26 to Anx A2 over-expressing tumors growing as xenografts in nude mice; assay type: in vivo
Experimental: FIGS. 8A-E depict 10-100 μg of FITC-PG-26 peptide was dissolved in 100 μl of saline was used to detect the tumor in nude mice. The images were captured in live mice after 1-60 minutes, with injection on the tumor site (FIG. 8A) or through tail vein (FIGS. 8B-D). In FIG. 8B, the localization of tumor cells are marked with arrows detected after 5 minutes post tail vein injection.
For data presented in FIGS. 2-4, 5A-5B and 6A-6E, the full length 80 amino acid rhPG was used (SEQ ID NO: 2), which was visualized by staining with fluorescently labeled primary or secondary antibodies. […] Strong peri-nuclear co-localization of FITC-PG26 with Anx A2 was measured within 15 min of labeling in a chase experiment (FIG. 7). […]
The 26 amino acid PG peptide (PG26), labeled with FITC at the N-terminal end, specifically homed to the site of a colon cancer xenograft, growing either under the skin or growing as a metastatic lesion in the liver. […] Even small tumor lesions were detected with FITC-PG26 after […] of tail vein injection (FIG. 8B). FITC-control peptide was not detected after 30 min of injecting into the tail vein (FIG. 8E), confirming the specificity of FITC-PG26 peptide for homing to tumors in situ.

[2] = Biological activity of PG26
Excerpt: For data presented in FIGS. 2-4, 5A-5B and 6A-6E, the full length 80 amino acid rhPG was used (SEQ ID NO: 2), which was visualized by staining with fluorescently labeled primary or secondary antibodies. However, in order to examine the feasibility of using PG peptides for diagnostic and treatment purposes, synthesized FITC labeled PG fragments (PG26, SEQ ID NO 1: […]) conjugated with either radio- or fluorescently labeled imaging reagents (for diagnostic purposes), or with cytotoxic payloads (for therapeutic purposes) was studied. […] Endocytotic internalization of FITC-PG26 in PG responsive immortalized kidney embryonic cell line, HEK-293, was examined. Strong peri-nuclear co-localization of FITC-PG26 with Anx A2 was measured within 15 min of labeling in a chase experiment (FIG. 7). […] The homing potential of FITC-PG26 to Anx A2 over-expressing tumors, growing as xenografts in nude mice, was confirmed, as shown in FIGS. 8A-8E.

CCK1R = experiment: Affinity of amidated gastrins for CCK1R; assay type: binding
Anx A2 [3] = target: Anx A2 (Homo sapiens, UniProt P07355); experiment: In vitro binding assay and co-IP of rhPG and ANX-II; conditions: in vitro binding assay, FIG. 3
Excerpt: Lane 1 is rhPG; lane 2 is ANX-II; lanes 3 and 4 are rhPG and ANX-II; lane 3 is IP with anti-PG (aPG); lane 4 is IP with anti-ANX-II (aANX-II). All the samples were processed for WB with both aPG and ANX-II.
(§1) Adenoma and adenocarcinomas tissue sections (from ovarian and colorectal cancers of patients) were positive for Anx A2 expression, while normal tissues were negative (FIGS. 4, 5A-5B). Immortalized intestinal epithelial cell line (IEC-18) are used, which responds to the growth and anti-apoptotic effects of PG peptides (9), for further investigating the biology of interaction of PG with Anx A2. Intra-cellular translocation of labeled PG was examined in IEC-18 cells. […] Using fluoroscense assisted sorting with labeled anti-Anx A2-Abs, presence of extracellular Anx A2 was confirmed on IEC-18 cells (FIG. 6B).

[4] = system: immortalized cells (IEC, HEK-293) and cancer cell lines (from ovaries/colons); experiment: Co-localization of PG with Anx A2 in PG-responsive cells; assay type: cell-based; conditions: cells responsive to growth effects of PG peptides
Excerpt: as §1

IEC-18 cells = experiment: Intra-cellular translocation of PG in IEC-18 cells (confocal microscopy, pull down/WB, Anx A2 siRNA); assay type: cell-based
Experimental: FIGS. 6A-6E depict the binding of PG with ANXII. FIG. 6A depicts immuno-colocalization of ANXII/PG in IEC cells, incubated with PG. E. IEC-18 cells were seeded, on sterile glass cover slips. Following overnight culture cells were incubated with PG (1 nM) from 0-15 min, and washed 3× with chilled PBS. Cells were fixed in acetone:methanol for 20 min at −20° C., and incubated with anti-PG or anti-ANXII-Abs, followed by fluorescence labeling with second Abs. Images were captured by confocal microscopy at 60×. Insets represent computer assisted enlarged images. Arrows depict co-localization on membranes. […] Cells in culture were detached with liberase to make single cell suspensions and incubated with either non-immune IgG or anti-ANXII-Ab for 2 hours at room temperature, washed with chilled PBS followed by incubation with FITC-second-Ab for 1 hours at room temperature. FIG. 6C depicts IEC-18 cells in culture treated with PG for 0-15 min except for Lamp1 (treated for 0-30 min) at 37° C. and washed with chilled PBS 3×. Cells were processed for pull down with anti-PG-Ab and processed for WB analysis for either EEA1/ANXII/PG/Lamp1. […] The inset portion of the co-localization staining is also shown.
as §1
Since Anx A2 lacks transmembrane domains, mechanisms mediating translocation of Anx A2/PG from outer cell membranes towards intracellular compartments remains unknown. Anx A2 also binds transmembrane proteins such as CD44, which are over-expressed in cancer cells. Thus the tumor specific expression of CD44-like transmembrane proteins offers an additional level of cancer-specific regulation, allowing intra-cellular translocation of PG-Anx A2 only in tumor cells. […] Co-localization of PG/Anx A2 with the early endosomal marker (EEA1) was examined. Cellular lysates from IEC-18 cells, treated with PG for 0, 5 and 15 min, were pulled down with anti-PG Abs and processed for WB analysis for EEA1, Lamp1 (lysomal marker), Anx A2 and PG (FIG. 6C). Possible in situ co-localization of EEA1 with PG was also examined after 15 min of PG stimulation by confocal microscopy (FIG. 6D). […]

T1 sequence (Q07936 whole entry): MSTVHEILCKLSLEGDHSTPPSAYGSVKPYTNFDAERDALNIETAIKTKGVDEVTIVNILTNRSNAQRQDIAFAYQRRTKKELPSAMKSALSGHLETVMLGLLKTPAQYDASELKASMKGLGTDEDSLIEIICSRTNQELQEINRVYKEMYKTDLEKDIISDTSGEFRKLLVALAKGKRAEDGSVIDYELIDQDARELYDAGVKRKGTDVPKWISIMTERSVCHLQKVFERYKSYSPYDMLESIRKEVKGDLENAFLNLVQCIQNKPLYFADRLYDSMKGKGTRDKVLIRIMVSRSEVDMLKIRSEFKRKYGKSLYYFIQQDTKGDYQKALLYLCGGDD
Chain of Anx A2 (Homo sapiens, UniProt P07355) (P07355 whole entry, species assumed): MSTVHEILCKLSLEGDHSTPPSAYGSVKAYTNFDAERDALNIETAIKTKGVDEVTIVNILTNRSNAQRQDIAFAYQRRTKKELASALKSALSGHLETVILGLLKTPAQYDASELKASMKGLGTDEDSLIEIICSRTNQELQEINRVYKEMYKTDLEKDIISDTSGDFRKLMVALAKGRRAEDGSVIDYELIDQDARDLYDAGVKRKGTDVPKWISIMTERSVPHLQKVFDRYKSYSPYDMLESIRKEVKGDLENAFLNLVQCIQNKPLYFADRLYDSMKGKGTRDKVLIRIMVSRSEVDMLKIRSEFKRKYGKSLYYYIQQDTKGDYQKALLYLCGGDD

CCK8: cholecystokinin CCK8 [reference compound]
Relative binding affinity (RBA) for the 36 kDa Anx A2 protein, rank order (Anx A2 [1]): no affinity

CSCC[C@H](NC(=O)[C@H](Cc1c[nH]c2ccccc12)NC(=O)CNC(=O)[C@H](Cc1ccc(O)cc1)NC(=O)[C@H](C)NC(=O)[C@H](CCC(=O)O)NC(=O)[C@H](CCC(=O)O)NC(=O)[C@H](CCC(=O)O)NC(=O)[C@H](CCC(=O)O)NC(=O)[C@H](CCC(=O)O)NC(=O)[C@H](CC(C)C)NC(=O)[C@H](Cc1c[nH]c2ccccc12)NC(=O)[C@@H]1CCCN1C(=O)CNC(=O)[C@H](CCC(N)=O)NC(=S)Nc1ccc2c(c1)C(=O)OC21c2ccc(O)cc2Oc2cc(O)ccc21)C(=O)N[C@@H](CC(=O)O)C(=O)N[C@@H](Cc1ccccc1)C(=O)NCC(=O)N[C@@H](CCCNC(=N)N)C(=O)N[C@@H](CCCNC(=N)N)C(=O)N[C@@H](CO)C(=O)N[C@@H](C)C(=O)N[C@@H](CCC(=O)O)C(=O)N[C@@H](CC(=O)O)C(=O)N[C@@H](CCC(=O)O)C(=O)N[C@@H](CC(N)=O)C(=O)O [FITC-PG26] ({FITC}-QGPWLEEEEEAYGWMDFGRRSAEDEN-OH; N-terminus and C-terminus assumed)
retention in the tumor (colon cancer xenograft; i.v. injection through the tail vein, FIG. 8C): ~60 min
retention of fluorescence in tumor (colon cancer xenograft; injected intra-tumorally, FIG. 8A): > 20 min

QGPWLEEEEEAYGWMDFGRRSAEDEN (homing progastrin peptide specifically binding annexin2) [PG26, 26 amino acid PG peptide fragment]
biological activity [2]: biologically active

G34: amidated gastrin (QLGPQGPPHLVADPSKKQGPWLEEEEEAYGWMDF-NH2; ends and bridges not checked; UniProt P01350 59-92, looked up)
affinity for CCK1R (CCK1R): much higher affinity

G17: amidated gastrin
affinity for CCK1R (CCK1R): much higher affinity

B1: PG: full length 80 amino acid rhPG (SEQ ID NO: 2) (protein)
chain: SWKPRSQQPDAPLGTGANRDLELPWLEQQGPASHHRRQLGPQGPPHLVADPSKKQGPWLEEEEEAYGWMDFGRRSAEDEN
modifications: recombinant human progastrin
binding of Anx A2 and rhPG (Anx A2 [3]): Direct binding
co-localization of PG with Anx A2 [4]: strong co-localization
PG binding/uptake (IEC-18 cells; IEC18 cells treated with specific siRNA against Anx A2, FIG. 6E): completely negative
localization of PG/Anx A2 after addition of PG (IEC-18 cells; IEC-18 cells, FIG. 6A): initial co-localization of PG with Anx A2 on the cellular membranes, followed by rapid intracellular localization
time to translocation of Anx A2 and PG into early endosomes (IEC-18 cells; after PG stimulation, IEC-18 cells): ≤ 5 min
increase in co-IP of Lamp1 with PG (IEC-18 cells; later time points, FIG. 6C): ~5 fold
Relative binding affinity (RBA) for the 36 kDa Anx A2 protein, rank order (Anx A2 [1]): PG>G-Gly>G17

B2: G-Gly: glycine-extended gastrin, processing intermediate of progastrin (peptide)
peptide: SWKPRSQQPDAPLGTGANRDLELPWLEQQGPASHHRRQLGPQGPPHLVADPSKKQGPWLEEEEEAYGWMDFGRRSAEDEN
Relative binding affinity (RBA) for the 36 kDa Anx A2 protein, rank order (Anx A2 [1]): PG>G-Gly>G17

Source: patent US20110085986A1, “Diagnosis and treatment of epithelial cancers using labeled/conjugated progastrin peptides” (priority 2009, published 2011)
